Data from US20060034835A1 (Genentech, published 2006).

Key:
human CD20 (human) = human CD20 (human) (UniProt P11836); assay: cell-based or functional assay
human CD20 = target: T1, human CD20 (human, UniProt P11836 1-297); assay: cell-based ELISA on WIL2-S cells
T1 construct: whole, on cells; also called CD20 antigen; Bp35
T1 sequence (looked up): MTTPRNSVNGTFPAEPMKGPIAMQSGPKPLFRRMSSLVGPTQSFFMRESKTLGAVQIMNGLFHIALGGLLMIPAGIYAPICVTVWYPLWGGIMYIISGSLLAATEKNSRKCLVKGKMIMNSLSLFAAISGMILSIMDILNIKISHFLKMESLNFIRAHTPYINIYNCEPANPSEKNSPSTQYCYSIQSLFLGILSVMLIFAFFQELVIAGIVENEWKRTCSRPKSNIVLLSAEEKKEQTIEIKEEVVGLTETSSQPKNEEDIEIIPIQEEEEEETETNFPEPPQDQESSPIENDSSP
Method: To measure relative binding affinities to the CD20 antigen, a cell-based ELISA assay was developed. […] The cells were washed with PBS containing 1% FBS (assay buffer) and seeded at 250-300,000 cell/well in 96-well round bottom plates (Nunc, Roskilde, Denmark). […] The plates were buried in ice and incubated for 45 min. To remove the unbound antibody, 0.1 mL assay buffer were added to the wells. Plates were centrifuged and supernatants were removed. Cells were washed two more times with 0.2 mL assay buffer. Antibody bound to the plates was detected by adding peroxidase conjugated goat anti-human Fc antibody (Jackson ImmunoResearch, West Grove, Pa.) to the plates. After a 45 min incubation, cells were washed as described before. TMB substrate (3,3′,5,5′-tetramethyl benzidine; Kirkegaard & Perry Laboratories, Gaithersburg, Md.) was added to the plates. The reaction was stopped by adding 1 M phosphoric acid. Titration curves were fit with a four-parameter nonlinear regression curve-fitting program (KaleidaGraph, Synergy software, Reading, Pa.). The absorbance at the midpoint of the titration curve (mid-OD) and its corresponding concentration of the standard were determined. Then the concentration of each variant at this mid-OD was determined, and the concentration of the standard was divided by that of each variant.

Row | Molecule | ADCC: EC50(variant)/EC50(2H7.v16) (human CD20 (human)) | ADCC: EC50(variant)/EC50(Rituxan) (human CD20 (human)) | CDC: EC50(variant)/EC50(Rituxan) (human CD20 (human)) | apoptosis of Ramos cells: fraction of Annexin V stained cells at 10 nM crosslinked antibody (human CD20 (human)) | apoptosis of Ramos cells: fraction of doubly labeled cells at 10 nM crosslinked antibody (human CD20 (human)) | apoptosis of Ramos cells: live cells counted per 10 s at 10 nM crosslinked antibody (cells per 10 s) (human CD20 (human)) | Relative binding (human CD20)
1 | Rituxan (rituximab) (antibody) | 5.3 | 1 | 1 | 16.5% | 38% | 3100 | 
2 | 2H7 version 166 (antibody, human IgG1, kappa, V domains shown, IgG1; Y100b is deleted (written as a substitution with an empty new residue)) VH: EVQLVESGGGLVQPGGSLRLSCAASGYTFTSYNMHWVRQAPGKGLEWVGAIYPGNGDTSYNQKFKGRFTISVDKSKNTLYLQMNSLRAEDTAVYYCARVVYYGGDWYFDVWGQGTLVTVSS VL: DIQMTQSPSSLSASVGDRVTITCRASSSVSYMHWYQQKPGKAPKPLIYAPSNLASGVPSRFSGSGSGTDFTLTISSLQPEDFATYYCQQWSFNPPTFGQGTKVEIKR |  |  |  |  |  |  | 0.99 ratio to 2H7.v16
